These results are taken from US20260043020A1, “BINDING MEMBERS WITH ALTERED DIVERSITY SCAFFOLD DOMAINS” (priority 2016, published 2026).

The experiment concerns the target rat TFR (rat) (UniProt Q99376). Nature of the experiment: cell-based or functional assay.

In turn, OX26-Fab returned a % transcytosis after 6 h (in vitro rat BBB model) of 0.2%.
